In US20210284724A1 (I MAB BIOPHARMA US, published 2021):
Positions count from the first letter of the chain named.

T1: mouse CXCL13 (mouse, UniProt O55038 22-109)
T1 construct: also called rmCXCL13
T1 sequence (looked up): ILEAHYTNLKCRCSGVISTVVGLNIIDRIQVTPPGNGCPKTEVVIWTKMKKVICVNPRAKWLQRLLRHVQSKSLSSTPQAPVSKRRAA

T2: cynomolgus CXCL13 (cynomolgus, UniProt H6WS58 23-109)
T2 construct: also called cynoCXCL13; Cyno CXCL13
T2 sequence: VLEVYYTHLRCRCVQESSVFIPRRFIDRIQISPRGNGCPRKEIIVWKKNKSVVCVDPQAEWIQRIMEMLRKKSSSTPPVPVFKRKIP

T3: human CXCL13 (human, UniProt O43927 23-109)
T3 construct: also called huCXCL13; rhCXCL13
T3 sequence (looked up): T2 sequence with H8S, S32L, V52I, I65M, M68V, K72R, P77L

B1: 408E3F3 (antibody, V domains shown)
VH: HVTLRESGPGVLQPSKTLSLTCSFSGFSLSTSAMVVSWIRQSSGMSLEWLAAIDWEGDKYYNPSLESRLTVSRDISDTQVFLRITSVDVADTATYYCAVMSSADSHSVLDAWGQGVSVTVSS
VL: DIKMTQSPSFLSASVGDRVTINCKASQNIHNYLNWYQQKFGEAPRLLIYNTNNLQTGIPSRFSGSGSGTDFTLTISSLQPEDVATYFCLQHSSSLTFGSGTKLEIN
notes: Hybridoma mAb
B2: 537C8D7 (antibody, V domains shown)
VH: EVQLVESGGGLVLPGRSLKLSCAASGFTFSDYAMAWVRQAPKKGLEWVATVFYDGSDTFYRDSVKGRFTISRDNAKSTLYLQMDSLRSEDTATYYCAREGDYYSRHVYVGYNWFPHWGQGTLVTVSS
VL: DIRMTQSPASLSASLGETVNIECLTSEDINSELAWYQQKPGKFPQFLIYNANSLQDGVPSRFSGSGSGTQYSLKINSLQSEDVATYFCQQYNSYPLTFGSGTELEIK
notes: Hybridoma mAb
B3: 119H10D6 (antibody, V domains shown)
VH: QVQLQQSGAELMKPGASVKISCKATGYTFNTYWIEWVKQRPGHGLEWIGEILPGSESTDYNEKFKDKATFTADISSNTAYMQLSSLTSEDSAVYYCARDYYGYYFDYWGQGTTLTVSS
VL: DIVMTQSHKFMSTSVGDRVSITCKASQDVSTAVVWYQQKPGQSPKLLIYSASYRYTGVPDRFSGSGSGTDFTFTISSVQAEDLAVYYCQQHYSSPRTFGGGTKLEIK
notes: Hybridoma mAb
B4: 130D6G1 (antibody, V domains shown)
VH: B3 VH with A24S, N30S, E56D, D59N, Y60S, K65E, D66G, I74T, Y103F
VL: B3 VL with S20N, V34A, A51T, S63T, S77N, S93T, S94T
notes: Hybridoma mAb
B5: 21H12D9 (antibody, V domains shown)
VH: EVQLQQSGPVLVRPGASVKMSCKASGYTFTDYYMNWVKQSHGKSLEWIGVINPNNGGTTYKEKFKGKATLTVDKSSGTAYMELNSLTSEDSAVYYCARDDYDAGYWGQGTTLTVSS
VL: DIVMTQFQKFMSTTVGDRVSITCKASQNVDTAVAWYQHKPGQSPKLLIYSASHRYTGVPDRFTGSGSGTDFTLTISNVQSEDLADYFCQQYTDFPLTFGAGTKLELK
notes: Hybridoma mAb
B6: 339A9E7 (antibody, V domains shown)
VH: DVQLQESGPGLVKPSQSLSLTCTVTGYSITSDYAWNWNRQFPGNKLEWMGYISYSGDTSYNPSLRSRISITRDTSKNQFFLQLNSVTAEDTAKYYCVAGHFDYWGQGTTLTVSS
VL: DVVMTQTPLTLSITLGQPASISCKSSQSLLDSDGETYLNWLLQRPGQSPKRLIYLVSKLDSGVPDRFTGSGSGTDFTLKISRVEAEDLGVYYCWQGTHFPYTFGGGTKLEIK
notes: Hybridoma mAb
B7: 411A11E9 (antibody, V domains shown)
VH: EVQLVESGGGLVQPGGSLKLSCVVSGFTFSDYYMAWVRQTPTKGLEWVASINYDGGDTYYRDSVKGRFTVSRNNAKSSLFLQMDSLRSEDTATYYCKTEEDYDGSYVMDAWGQGASVIVSS
VL: DIQMTQSPSFLSASVGDRVTISCKASQNINKELTWYQQKLGKAPKRLIYNTNILQTGIPSRFSGSGSNTDYTLTISSLQPEDFATYFCLQQSSLYTFGAGTKLELK
notes: Hybridoma mAb
B8: 64C10G1 (antibody, V domains shown)
VH: EVQLVESGGGLVKPGGSLKLSCAASGFTFSSYAMSWVRQTPEKRLEWVATISDGGSDAYYPDNVKGRFTISRDNAKNNLYLQMSHLKSEDTAMYYCARDYYGSGYEDSPMDYWGQGTSVTVSS
VL: DIQMTQSPSSLSASLGGKVTITCKASQDINKYIAWYQHKPGKGPRLLIHYTSTLQPGIPSRFSGSGSGRDYSFSISNLEPEDFATYYCLQYDNLYTFGGGTKLEIK
notes: Hybridoma mAb
B9: 19H7E10 (antibody, V domains shown)
VH: EVQLQQSGPELVKPGASVKISCQASGYAFSDYYMNWVKQSHGKRLEWIGDINPNNDGTTYNQKFKDKATLTVDKSSSTAYMDLRSLTSEDSAVYYCARLSWSFFAMDYWGQGTSVTVSS
VL: DIVMTQSHKFMSTSVGDRVSITCKASQDVSSGVAWYQQKPGQSPKVLIYSASHRHTGVPDRFTASGSGTDFTFTISSVQAEDLAVYYCQQYYNTPWTFGGGTKLEIK
notes: Hybridoma mAb
B10: 445A6G7 (antibody, V domains shown)
VH: QVTLKESGPEILQPSQTLSLTCTFSGFSLSPYGMGVGWIRQPSGKGLEWLANIWWDDDKYYNPSLINRLTISKDTSNNQAFLKITNVDTTDSATYYCVRSELVMPYVPFDYWGQGVMVTVSS
VL: DIQMTQSPSSMSASLGDRVTITCQASQDIGNDLIWFQQKPGKSPRPLIYYATNLANGVPSRFSGRRSESNYSLTISSLESEDMADYHCLQFKQYPYTFGAGTKLELK
notes: Hybridoma mAb
B11: 418D3H6 (antibody, V domains shown)
VH: B10 VH with E10G, P31T, D74N, T89A, T90P, S92T, V98A, Y111F, V116I
VL: DIQMTQSPSSLSASLGDRITMTCQASQDIGIELIWFQQKPGKSPWPVIYYTANLASGVPSRFSGSRSGSHYSLTISSLESEDMADYHCLQYKQYPFTFGSGTKLEIK
notes: Hybridoma mAb
B12: 423A6H6 (antibody, V domains shown)
VH: B10 VH with E10G, P31T, I66Q, T90A, S92T, V98A, V103I, M117R
VL: B10 VL with G30D, D32H, L47M, R65S, E68G, N70D, Y96F, A100S, L106I
notes: Hybridoma mAb
B13: 427C4F11 (antibody, V domains shown)
VH: QVTLKESGPGILQPSQTLSLTCTFSGFSLTTYGMGVGWIRQPSGKGLEWLANIWWDDDKYSNPSLQSRLTISKDTSNNQAFLTITNVDTADTATYYCARSELVMPYVPFDYWGQGVRVTVSS
VL: B10 VL with G30D, D32H, K42R, L47M, R65S, E68G, N70D, Y96F, A100S, L106I
notes: Hybridoma mAb
B14: 432C12E1 (antibody, V domains shown)
VH: B10 VH with E10G, P31T, I66K, T90A, S92T, V98A, L102I
VL: B10 VL with L47M, R65S, R66G, E68G, N70V, Y96F, A100S, L106I
notes: Hybridoma mAb
B15: 402H2G12 (antibody, V domains shown)
VH: B13 VH with T30S, S61Y, S67N, T83K, T85N, V103I
VL: B10 VL with G30D, D32H, L47M, R65S, E68G, N70D, Y96F, A100S, L106I
notes: Hybridoma mAb
B16: 442C9H4 (antibody, V domains shown)
VH: B10 VH with E10G, T23S, P31T, D74N, T89A, T90P, S92T, V98A, Y111F, V116I
VL: B11 VL with M21I, E32D
notes: Hybridoma mAb
B17: 415A3D1F4 (antibody, V domains shown)
VH: EVKLLESGGGLVQAGGSMRLSCGAFGFTVTDFYINWIRQPAGKAPEWLGFMRNKANGYTTEYNPSVKGRFTISRNNTQNMPYLQMNTLRTEDTAIYYCARSRYNADDYYVGVMDVWGQGASVTVSS
VL: DIQMTQFPASLSASLGETVSIECLASEDIYNNLAWYQQKPGKSPQLLIYYTNSLQDGVPSRFSGTGSGTQYSLKINSLESEDAATYFCLQDSEYPWTFGGGTKLKLK
notes: Hybridoma mAb

Experiments:
mouse CXCL13 = target: T1, mouse CXCL13; assay: ELISA, coated antigen
cynomolgus CXCL13 = target: T2, cynomolgus CXCL13; assay: ELISA, coated antigen
human CXCL13 [1] = target: T3, human CXCL13; assay: ELISA, coated antigen
human CXCL13 [2] = target: T3, human CXCL13; assay: cell-based blocking ELISA, CXCL13 to CHO-K1-CXCR5
Procedure: Splenocytes were electro-fused with mouse myeloma cell line SP2/0 cells and plated into 96-well culture plate. The hybridoma supernatants were tested by ELISA binding assay for anti-human CXCL13 binders. Supernatants of positive binding clones were screened for function in blocking of human CXCL13 binding to its […] CXCR5 by Cell-based receptor blocking ELISA assay. Briefly, 5×10⁴ CHO-K1-CXCR5 cells were plated in 96-well plate with 100 μl of culture medium and incubated at 37° C. overnight. Cells were fixed with 100 μl of 2% PFA at RT for 1 hr after washing with PBS for 1 time. Blocking was done with 1% BSA in PBST for 1 hr at RT. Supernatants were diluted with PBS and pre-incubated with equal volume of 0.3 μg/ml human CXCL13 for 30 min at RT. 100 μl of antibody-antigen complex was then transferred into each cell wells for 30 min at RT. The samples were washed with 1×PBST for 3 times and 100 μl of 3 μg/ml of human Mab5261 antibody was add into each well to capture human CXCL13 and anti-human Fc-HRP was used to indirectly detect human CXCL13 when it bound to CHO-K1-CXCR5 cells. […] Reading was done at […].
Those antibodies were purified from hybridoma supernatants by binding with Protein G column and characterized by ELISA binding assays and cell-based blocking ELISA assays. […] 11/20 clones bound to both human CXCL13 and cynomolgus CXCL13 appeared to completely block human CXCL13 to human CXCR5. 11 blockers bound to both huCXCL13 and cynoCXCL13 were produced as chimeric human IgG1 antibodies for further Characterization.

| Binder | binding result (mouse CXCL13) | EC50 (cynomolgus CXCL13) [µg/mL] | EC50 (human CXCL13 [1]) [µg/mL] | IC50 (human CXCL13 [2]) [µg/mL] | EC50 (mouse CXCL13) [µg/mL] | binding result (cynomolgus CXCL13) |
| --- | --- | --- | --- | --- | --- | --- |
| B1 | no binding | 0.0706 | 0.0237 | 1.49 | – | – |
| B2 | – | – | 0.0128 | 2.46 | 0.0375 | no binding |
| B3 | no binding | – | 0.0393 | 0.533 | – | no binding |
| B4 | no binding | – | 0.0192 | 1.23 | – | no binding |
| B5 | no binding | 0.0619 | 0.0156 | 1.27 | – | – |
| B6 | no binding | 0.0245 | 0.0216 | 13.3 | – | – |
| B7 | no binding | 0.252 | 0.0201 | 0.793 | – | – |
| B8 | no binding | 0.347 | 0.0314 | 0.33 | – | – |
| B9 | no binding | 0.196 | 0.0385 | 2.22 | – | – |
| B10 | – | – | 2.91 | 14.9 | 1.23 | no binding |
| B11 | – | – | 48.7 | 23.3 | 7.49 | no binding |
| B12 | – | – | 1.56 | 8.96 | 0.248 | no binding |
| B13 | – | – | 1.33 | 7.92 | 0.202 | no binding |
| B14 | – | – | 5.1 | 12.7 | 0.744 | no binding |
| B15 | – | – | 0.00578 | 8.72 | 0.0357 | no binding |
| B16 | – | – | 9.85 | 18.2 | 2.96 | no binding |
| B17 | no binding | 0.0711 | 0.0132 | 0.698 | – | – |
